The text below walks through data of patent US20250002565A1 (published 2025).

In test [1] the target is T1, 15-mer peptide LGIWGCSGKLICTTT (SEQ ID NO:1) (HIV, not fully specified; cysteine pairing not given here).
T1 construct: also called U1731DB060-1; U173DB060-1
T1 peptide: LGIWGCSGKLICTTT
As to the kind of experiment: indirect ELISA; 15-mer peptide coated 1 ug/ml in DTT; antibody at 12 ng/ml. As for the experimental part: (§1) In a first study, an ELISA was prepared in which the linear (reduced) form of the 15-mer peptide […] (SEQ ID NO:1) was coated onto a solid support and contacted with various concentrations of peptides #1, #2, #3, #4, #5, #6, #7, #8, #9Q, #10Q, and #11Q. A mouse, anti-human IgG Fc-HRP at 0.2 μg/ml was used as a secondary antibody.
In general terms: An ELISA detects its analyte on a solid surface through an enzyme-linked reagent.

The target of test [2] is T1, 15-mer peptide LGIWGCSGKLICTTT (SEQ ID …). As to the kind of experiment: indirect ELISA; 15-mer peptide coated 1 ug/ml in DTT; antibody at 37 ng/ml. As for the experimental part:
as §1

For test [3] the target is unchanged. As to the kind of experiment: indirect ELISA; 15-mer peptide coated 1 ug/ml in DTT; antibody at 111 ng/ml. As to the method: as §1
For test [4] the target is unchanged. Put plainly: indirect ELISA; 15-mer peptide coated 1 ug/ml in DTT; antibody at 333 ng/ml. As for the experimental part:
as §1

The target is the same in test [5]. As to the kind of experiment: indirect ELISA; 15-mer peptide coated 1 ug/ml in DTT; antibody at 1000 ng/ml. As for the experimental part:
as §1

The target is the same in test [6]. As to the kind of experiment: indirect ELISA; 15-mer peptide coated 1 ug/ml in DTT; negative control well of this row (not explained). As to the method: as §1
The target of test [7] is gp41 of HIV isolate SF-162 (clade B clinical isolate) (HIV isolate SF-162, clade B). As to the kind of experiment: cell-based or functional assay.
Test [8] deals with T2, recombinant HIV gp41 (HIV).
T2 construct: also called U7267DC080-1; U1916DG190-1
As to the kind of experiment: indirect ELISA; gp41 coated 2 µg/ml in PBS. As for the experimental part: (§2) Variants #9V, #10V, and #11V were prepared with substitutions in the heavy chain. These variants comprised amino acids sequences nearly identical to #9Q, #10Q, and #11Q, respectively, with the only distinction being a substitution of glutamine (Q) for valine (V) at the 5 position of the heavy chain. Exemplary peptides #10Q and #10V were tested in indirect ELISA assays to determine the EC50 values for binding to the epitope having the amino acid sequence of SEQ ID NO:1 and HIV gp41. The results of these studies are shown in Tables 6 and 7 below, as well as FIGS. 2 and 3. Target proteins U7267DC080-1 and U173DB060-1 correspond to recombinant gp41 and the 15-mer peptide […] (SEQ ID NO:1), respectively.

The target in test [9] is T3, gp41 on the membrane of HIV-infected CD4+ cells (HIV).
T3 construct: whole, on cells; also called CD4 cell-surface gp41
As to the kind of experiment: FACS on HIV-infected CD4+ cells, absence of sCD4. As to the method:
(§3) For the FACS binding studies, the CD4+ cells that were infected with HIV expressed HIV viral envelope proteins on the cell membrane surfaces, e.g., gp160=gp41 and gp 120. Binding of proteins #7, #10Q, and #10V was tested in both presence and absence of soluble CD4 (sCD4).

For test [10], the target named is T3, gp41 on the membrane of HIV-infected …. As to the kind of experiment: FACS on HIV-infected CD4+ cells, presence of sCD4. As to the method:
as §3

Test [11] addresses T2, recombinant HIV gp41. As to the kind of experiment: GenScript binding assay, EC50 vs rgp41 (summary table; per first reading the same value as in Tables 6-8).
The target of test [12] is T2, recombinant HIV gp41. Put plainly: indirect ELISA; gp41 coated 2 µg/ml in DTT (by the table's columns; paragraph 121 calls it the value against SEQ ID NO:1). As for the experimental part: as §2

Where a chain is given by its changes, count along the chain named. No end group written: not given here.

B1: HIV-binding peptide #1 (antibody, human IgG1, kappa, V domains shown)
VH: QVQLQESGGGVVQPGRSLRLSCAASGFTFSSYAIHWVRQAPGKGLEWVAVISYDGSNRYYADSVKGRFTISRDNSKNTLYLQMNSLRPEDTAVYYCARDRFSAVASTPTYHNYFYMDVWGKGTTVTVSS
VL: DIQMTQSPSSLSASVGDRVTITCQASQDVNNYLAWYQQKPGQAPRLLIYDASNLETGVPSRFSGSGSGTDFTLTISSLQPEDLATYYCQQYDNTPYTFGQGTKLEIKR
notes: Recombinant, fully human immunoglobulin; also called U1205DB020-1
On to B1, for which the “ELISA OD” value was determined as 0.08 OD in [1]; 0.098 OD in test [2]; 0.076 OD in test [3]; 0.096 OD in [4]; 0.079 OD in [5]. Further, the “ELISA OD (Neg. Cont.)” value in test [6] was determined as 0.096 OD.

B2: HIV-binding peptide #9Q (antibody, human IgG1, V domains shown)
VH: B1 VH
As to B2, the “ELISA OD” value came to 0.111 OD in test [1]; 0.122 OD in test [2]; 0.171 OD in test [3]; 0.322 OD in test [4]; 0.745 OD in test [5]. The “ELISA OD (Neg. Cont.)” value in [6] amounted to 0.105 OD.

B3: HIV-binding peptide #10Q (antibody, V domains shown)
VH: B1 VH
notes: also called antibody#10-5Q; U1205DB020-10
For B3, the “IC value vs SF 162 (µg/ml) in PBMC based in vitro assays” value (shortened to “IC value vs SF 162 (µg/ml)”) in [7] was 0.05 µg/mL. The values for the EC50 in [8], in test [11] and in test [12] were 1.78 mg/L, 1.78 mg/L and 5.54 mg/L, respectively. The “Fluorescent (FACS) counts” value in test [9] came to 120000 counts; in test [10] it was 110000 counts. The “ELISA OD” value worked out at 0.14 OD in test [1]; 0.209 OD in [2]; 0.377 OD in test [3]; 0.863 OD in test [4]; 1.71 OD in test [5]. In [6], the “ELISA OD (Neg. Cont.)” value came out at 0.084 OD.

B4: HIV-binding peptide #6 (antibody, human IgG1, kappa, V domains shown)
VH: B1 VH
VL: B1 VL with V29I, N30S
notes: Recombinant, fully human immunoglobulin; also called U1205DB020-6
Take B4: the “ELISA OD” value was 0.077 OD in test [1]; 0.072 OD in test [2]; 0.08 OD in test [3]; 0.078 OD in [4]; 0.079 OD in test [5]. Further, in [6], the “ELISA OD (Neg. Cont.)” value is 0.087 OD.

B5: HIV-binding peptide #10V (antibody, V domains shown)
VH: B1 VH with Q5V
notes: differs from #10Q by Q to V at position 5 of the heavy chain; also called antibody#10-5V; U6323DD200-2
Regarding B5, the “IC value vs SF 162 (µg/ml)” value in [7] came out at 0.5 µg/mL. For the same molecule, the EC50 (commonly the concentration giving half of the maximal effect) in test [8] was 1.39 mg/L; in test [11] it was 1.39 mg/L; in test [12], 4.59 mg/L. Also, the figures for the “Fluorescent (FACS) counts” value in test [9] and in [10] were 56600 counts and 29900 counts, respectively.

B6: HIV-binding peptide #11Q (antibody, V domains shown)
VH: B1 VH
notes: Heavy chain only with variant CH1/CH2 (hinge cysteines replaced by serines)
For the molecule B6, the “ELISA OD” value in [1] is 0.092 OD; in test [2], 0.119 OD; in test [3], 0.127 OD; in test [4], 0.241 OD; in [5], 0.441 OD. Also, the “ELISA OD (Neg. Cont.)” value in [6] came to 0.104 OD.

B7: HIV-binding peptide #3 (antibody, human IgG1, kappa, V domains shown)
VH: B1 VH
VL: B1 VL with T94L
notes: Recombinant, fully human immunoglobulin; also called U1205DB020-3
Turning to B7, the “ELISA OD” value in test [1] came out at 0.087 OD; in test [2] it was 0.074 OD; in test [3], 0.072 OD; in test [4], 0.077 OD; in test [5] it was 0.072 OD. For the same molecule, in [6], the “ELISA OD (Neg. Cont.)” value worked out at 0.083 OD.

B8: HIV-binding peptide #5 (antibody, human IgG1, kappa, V domains shown)
VH: B1 VH
VL: B1 VL with N30S
notes: Recombinant, fully human immunoglobulin; also called U1205DB020-5
For the molecule B8, the “ELISA OD” value in test [1] stood at 0.082 OD; in test [2], 0.081 OD; in test [3], 0.071 OD; in test [4] it was 0.086 OD; in test [5], 0.081 OD. Besides, the “ELISA OD (Neg. Cont.)” value in test [6] was determined as 0.078 OD.

B9: HIV-binding peptide #4 (antibody, human IgG1, kappa, V domains shown)
VH: B1 VH
VL: B1 VL with V29I, T94L
notes: Recombinant, fully human immunoglobulin; also called U1205DB020-4
As to B9, the “ELISA OD” value in test [1] was 0.073 OD; in test [2], 0.077 OD; in test [3] it was 0.073 OD; in test [4], 0.079 OD; in test [5] it was 0.07 OD. Moreover, the “ELISA OD (Neg. Cont.)” value in test [6] worked out at 0.091 OD.

B10: HIV-binding peptide #7 (antibody, human IgG1, kappa, V domains shown)
VH: B1 VH
VL: B1 VL with N30S, T94L
notes: also called U1205DB020-7
Regarding B10, the “IC value vs SF 162 (µg/ml)” value in [7] is 0.5 µg/mL. Moreover, the results for the “Fluorescent (FACS) counts” value in test [9] and in test [10] were 25900 counts and 25000 counts, respectively. Moreover, the “ELISA OD” value came out at 0.096 OD in [1]; 0.098 OD in [2]; 0.084 OD in test [3]; 0.092 OD in test [4]; 0.09 OD in test [5]. In addition, in test [6], the “ELISA OD (Neg. Cont.)” value stood at 0.088 OD. Besides, the EC50 in [11] was found to be 107 mg/L.

B11: HIV-binding peptide #2 (antibody, human IgG1, kappa, V domains shown)
VH: B1 VH
VL: B1 VL with V29I
notes: Recombinant, fully human immunoglobulin; also called U1205DB020-2
B11: the “ELISA OD” value in test [1] worked out at 0.065 OD; in [2], 0.074 OD; in test [3], 0.188 OD; in test [4] it was 0.076 OD; in test [5] it was 0.068 OD. In addition, in test [6], the “ELISA OD (Neg. Cont.)” value stood at 0.075 OD.

B12: HIV-binding peptide #8 (antibody, human IgG1, kappa, V domains shown)
VH: B1 VH
VL: B1 VL with V29I, N30S, T94L
notes: Recombinant, fully human immunoglobulin; also called U1205DB020-8
B12: the “ELISA OD” value in [1] came out at 0.094 OD; in test [2] it was 0.089 OD; in [3], 0.1 OD; in test [4], 0.073 OD; in [5], 0.076 OD. Moreover, the “ELISA OD (Neg. Cont.)” value in test [6] was found to be 0.088 OD.
